Assay results: US20190212347A1, “BIO-ANALYTICAL METHOD FOR INSULIN ANALOGUES” (BIOCON LIMITED, priority 2016, published 2019)

Key:
[1] = Stability of stock solution in acetic acid (2%) in methanol:water; assay type: physicochemical; settings: acetic acid (2%) in methanol:water (30:70 v/v)
Procedure: Two separate stock solutions were prepared by dissolving 2 mg of IN-105 and dissolving in 1 mL of 2% acetic acid containing methanol:water in the ratio of 30:70 v/v. Thus, the stock solution of 2000 μg/mL was prepared.
One was named “calibration stock” and other was named “quality control stock”. The stock solution was stored at −20° C. for 40 days.
In one embodiment nitrogen isotope labelled insulin having purity 96.3% and 96.1% respectively, was used as analytical standard and internal standard for further analysis. Glargine (3.64 mg/mL) of 100% purity was used as co-administered standard in the analytical procedure. The stability studies to understand storage stability and solution stability were carried out.
In addition to the experiments described above, selectivity of the method in plasma (K2EDTA/K3EDTA) from different sources, effect of lipaemia and haemolysis, selectivity and modification of ionisation of insulin in the presence of Glargine and stability of solutions of insulin or insulin analogues investigated.

[2] = Pharmacokinetics study: IN-105 plasma levels by LC/MS/MS in euglycemic clamp study in patients with Type 1 diabetes; assay type: in vivo, human
Procedure: The method was considered validated successfully since it passed all the pre-determined criteria in the validation protocol. The validated method was subsequently used for measurement of IN-105 levels in a euglycemic clamp study carried out in patients with Type 1 diabetes. The method for the determination of IN-105 in human plasma has been validated successfully over the concentration range 0.200 ng/ml to 50.0 ng/mL.
Plasma concentration data for each patient and treatment was analysed by a non-compartmental method. The area under plasma level curve for AUC0-t was calculated by the trapezoidal rule. The primary pharmacokinetic parameters (mean±SD) were Cmax, AUClast, Tmax and PD parameters were Tmin, Cmin, AUClast. Ratios and 90% CIs of geometric means were calculated for PK and PD parameters from mixed effects model with fixed effects for sequence, period and treatment, and patients within sequence as a random effect for log transformed Cmax and AUC.
The average plasma concentration time profile of IN-105 obtained after administration of IN-105 tablets in volunteers is shown in FIGS. 13-14.

[3] = Stability in human plasma (room temperature, freeze/thaw, frozen storage); assay type: in vitro ADME
Procedure: Assessment of sample stability on storage (storage stability) was carried according to table (8), Acceptance criterion was defined as a recovered concentration within ±15% of the nominal spiked concentration. All standards were used within its stability period.
Validation consisted of intra run precision and bias, inter-run precision and bias, dilution integrity, matrix related modification of ionisation, auto-injector carry over, stability in whole blood at room temperature and on ice, freeze thaw stability of plasma over 5 cycles, 24 h room temperature stability of plasma, […], recovery and extract stability at 10° C.

[4] = Extract stability at 10° C.; assay type: physicochemical; settings: extracts stored at 10° C. for approximately 85 hours
Procedure: Validation consisted of intra run precision and bias, inter-run precision and bias, dilution integrity, matrix related modification of ionisation, auto-injector carry over, stability in whole blood at room temperature and on ice, freeze thaw stability of plasma over 5 cycles, 24 h room temperature stability of plasma, frozen stability in plasma at −20 and −80° C. for 73 days, recovery and extract stability at 10° C.

[5] = room temperature, up to 24 hours

Substance | solution stability at room temperature [1, 5] | solution stability at −20° C. ([1]; −20° C., up to 40 days) | mean plasma concentration as a function of time after dosing ([2]; 30 mg/kg dose, FIG. 15) | AUClast (AUCt) as function of dose: intercept ([2]; AUClast in ng · h/ml, linear regression against dose) [area units] | AUClast (AUCt) as function of dose: slope ([2]; AUClast in ng · h/ml, linear regression against dose, oral tablets, T1D patients) [area units/mg] | Cmax as function of dose: intercept ([2]; Cmax in ng/ml, linear regression against dose) [concentration units] | Cmax as function of dose: slope ([2]; Cmax in ng/ml, linear regression against dose, oral tablets, T1D patients) [concentration units/mg] | correlation of maximal plasma concentration and area under the PK curve with dose ([2]; p<0.05) | frozen stability in plasma at −20° C. ([3]; 244 days storage at −20° C.) | frozen stability in plasma at −80° C. ([3]; 244 days storage at −80° C.) | freeze/thaw stability in plasma ([3]; after five freeze/thaw cycles) | stability in plasma stored at room temperature [3, 5] | extract stability [4]
[^15N] IN-105: IN-105 labelled with stable isotope 15N by fermentation in labelled medium; used as internal standard | stable | stable |  |  |  |  |  |  |  |  |  |  | 
IN-105: rapid acting insulin analogue for oral delivery; human insulin sequence conjugated with short chain alkyl-polyethylene glycol at ε-amino group of lysine B29 |  |  | well-defined peak concentration and subsequent clearance is evident | −243.525 | 26.427 | −2.421 | 0.431 | linearly correlated significantly | stable | stable | stable | stable | stable
